{"source": "patent US20210292392A1", "assay_in_all_cases": "cell-based or functional assay", "key": {"[1]": {"biological_target": "spike protein on live SARS-CoV-2 (SARS-CoV-2) (UniProt P0DTC2)"}, "[2]": {"biological_target": "spike (S) protein of live SARS-CoV-2 (SARS-CoV-2) (UniProt P0DTC2)"}, "[3]": {"biological_target": "full length S protein of SARS-CoV-2 (on pseudovirus) (SARS-CoV-2) (UniProt P0DTC2)"}, "[4]": {"biological_target": "spike protein of live SARS-CoV-2 (SARS-CoV-2) (UniProt P0DTC2)"}}, "data": [{"substance": "P2C-1F11 (antibody)", "values": [{"measurement": "IC50, live SARS-CoV-2 focus reduction neutralization test (FRNT)", "setting": "[1]", "result": 0.03, "unit": "µg/mL"}, {"measurement": "Live virus IC50", "setting": "[2]", "result": 0.0323, "unit": "µg/mL"}, {"measurement": "Live virus IC80", "setting": "[2]", "result": 0.178, "unit": "µg/mL"}, {"measurement": "Pseudovirus IC50", "setting": "[3]", "result": 0.0286, "unit": "µg/mL"}, {"measurement": "Pseudovirus IC80", "setting": "[3]", "result": 0.119, "unit": "µg/mL"}, {"measurement": "Live virus IC50", "setting": "[4]", "result": 0.0323, "unit": "µg/mL"}, {"measurement": "Live virus IC80", "setting": "[4]", "result": 0.178, "unit": "µg/mL"}]}]}
